Reference: patent publication US20260055171A1 (Regeneron, published 2026)

Assays:
hFcRn-β2M-Biotin [1] = biological target: T1, hFcRn-β2M-Biotin (human, UniProt P55899 24-297; P61769 21-119, biotin (site and chain not stated)); assay: binding kinetics on hFcRn-β2M-Biotin, signal (nm) against time (sec); construct diluted 1:5 from 200 nM, concentrations not labelled on the sheet; platform not named
Protocol: (§1) Binding affinity of VEGF antagonists to Fc receptors CD16 (FcγRIIIa), CD64 (FcγRI), and FcRn was evaluated using hCD16-biotin, hCD64-biotin, and hFcRn-β2M-biotin.
(§2) For FcγRIIIa and FcγRI binding assessments, each construct was diluted 1:5 from a starting concentration of 50 nM, except Hex-REGN3 (IgG1) Mut1 PVA/P329A, which was evaluated only at the highest concentration. For FcRn assessments, each construct was diluted 1:5 from a starting concentration of 200 nM, except Hex-REGN3 (IgG1) Mut1 PVA/P329A, which was evaluated only at the highest concentration.

hCD64-Biotin [2] = biological target: T2, hCD64-Biotin (human, UniProt P12314 16-288, limits assumed, biotin (site not stated)); assay: binding kinetics on hCD64-Biotin, signal (nm) against time (sec); construct diluted 1:5 from 50 nM, concentrations not labelled on the sheet; platform not named
T2 construct: also called CD64 (FcγRI); CD64 (FcGRI)
Protocol: as §1, §2

hCD16a-Biotin = biological target: T3, hCD16a-Biotin (human, UniProt P08637 17-208, biotin (site not stated)); assay: binding kinetics on hCD16a-Biotin, signal (nm) against time (sec); platform not named
T3 construct: also called CD16 (FcγRIIIa); CD16a (FcGRIIIa)
Protocol: as §1, §2

hFcRn-β2M-Biotin [3] = biological target: T1, hFcRn-β2M-Biotin; assay: binding kinetics on hFcRn-β2M-Biotin, instrument not named
Protocol: as §1, §2

hCD64-Biotin [4] = biological target: T2, hCD64-Biotin; assay: binding kinetics on hCD64-Biotin, instrument not named
Protocol: as §1, §2

hCD64-Biotin [5] = biological target: T2, hCD64-Biotin; assay: binding kinetics on hCD64-Biotin, signal (nm) against time (sec); platform not named
Protocol: as §1, §2

T3 sequence (P08637 17-208 limits assumed): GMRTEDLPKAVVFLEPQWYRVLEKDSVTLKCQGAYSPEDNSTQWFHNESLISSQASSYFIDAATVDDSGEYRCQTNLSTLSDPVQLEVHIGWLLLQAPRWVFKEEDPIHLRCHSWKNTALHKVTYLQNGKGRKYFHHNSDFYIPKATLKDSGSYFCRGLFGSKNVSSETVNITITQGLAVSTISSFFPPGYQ
T1 sequence (P55899 24-297 limits assumed, chain 1 of 2): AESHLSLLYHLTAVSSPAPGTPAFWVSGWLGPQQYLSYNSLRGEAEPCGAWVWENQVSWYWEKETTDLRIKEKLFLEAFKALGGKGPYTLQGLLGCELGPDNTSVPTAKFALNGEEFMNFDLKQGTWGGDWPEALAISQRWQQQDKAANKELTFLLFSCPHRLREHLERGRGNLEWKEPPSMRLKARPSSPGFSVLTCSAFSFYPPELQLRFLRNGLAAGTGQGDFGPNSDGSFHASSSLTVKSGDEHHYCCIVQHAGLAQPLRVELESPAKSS
T1 sequence (P61769 21-119 limits assumed, chain 2 of 2): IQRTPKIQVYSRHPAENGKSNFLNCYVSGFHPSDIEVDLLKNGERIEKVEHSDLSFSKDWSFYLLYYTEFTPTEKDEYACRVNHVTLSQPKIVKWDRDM
T2 sequence (P12314 16-288 limits assumed): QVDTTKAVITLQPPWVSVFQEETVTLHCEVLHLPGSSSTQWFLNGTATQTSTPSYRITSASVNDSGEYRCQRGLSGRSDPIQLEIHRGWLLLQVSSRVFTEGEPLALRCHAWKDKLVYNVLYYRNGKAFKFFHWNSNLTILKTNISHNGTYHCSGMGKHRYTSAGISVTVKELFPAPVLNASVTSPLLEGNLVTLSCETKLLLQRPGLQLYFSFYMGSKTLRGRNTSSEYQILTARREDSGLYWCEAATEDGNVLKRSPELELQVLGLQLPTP

B1: Hex-REGN3 (IgG1) Mut2 LALAPG (Fc fusion)
chain: SDTGRPFVEMYSEIPEIIHMTEGRELVIPCRVTSPNITVTLKKFPLDTLIPDGKRIIWDSRKGFIISNATYKEIGLLTCEATVNGHLYKTNYLTHRQTNTIIDVVLSPSHGIELSVGEKLVLNCTARTELNVGIDFNWEYPSSKHQHKKLVNRDLKTQSGSEMKKFLSTLTIDGVTRSDQGLYTCAASSGLMTKKNSTFVRVHEKDKTHTCPPCPAPEAAGGPSVFLFPPKPKDTLMCSRTPEVTCVVVDVSHEAPEVKFNWYVDGVEVHNAKTKPREEQYNSTYRVVSVLTVLHQDWLNGKEYKCKVSNKALGAGIEKTISKAKGQPREPQVYTLPPSRDELTKNQVSLTCLVKGFYPSDIAVEWESNGQPENNYKTTPPVLDSDGSFFLYSKLTVDKSRWQQGNVFSCSVMHEALHNHYTQKSLSLSPGKPTLYNVSLVMSDTAGTCY
notes: Hexameric VEGF antagonist designed as six dimers
hFcRn-β2M-Biotin [1]
  binding result: binds
hCD64-Biotin [2]
  binding result: binds
hCD16a-Biotin
  binding result: no binding (tested: 50 nM (not printed on the sheet))

B2: Hex-REGN3 (IgG1) Mut1 LALAPG (Fc fusion)
chain: SDTGRPFVEMYSEIPEIIHMTEGRELVIPCRVTSPNITVTLKKFPLDTLIPDGKRIIWDSRKGFIISNATYKEIGLLTCEATVNGHLYKTNYLTHRQTNTIIDVVLSPSHGIELSVGEKLVLNCTARTELNVGIDFNWEYPSSKHQHKKLVNRDLKTQSGSEMKKFLSTLTIDGVTRSDQGLYTCAASSGLMTKKNSTFVRVHEKDKTHTCPPCPAPEAAGGPSVFLFPPKPKDTLMISRTPEVTCVVVDVSHEDPEVKFNWYVDGVEVHNAKTKPREEQYNSTYRVVSVLTVCHQDWLNGKEYKCKVSNKALGAPIEKTISKAKGQPREPQVYTLPPSREEMTKNQVSLTCLVKGFYPSDIAVEWESNGQPENNYKTTPPVLDSDGSFFLYSKLTVDKSRWQQGNVFSCSVMHEALHNHYTQKSLDKSTGKPTLYNVSLIMSDTGGTCY
notes: Hexamer of six dimers (VEGFR1 domain 2 - VEGFR2 domain 3 - IgG1 Fc - IgM tailpiece); also called HEX-REGN3 (IgG1) LALAPG Mut1; hexameric Hex-REGN3
hFcRn-β2M-Biotin [3]
  Kd: < 0.001 nM
  koff: < 1e-07 s⁻¹
  kon: 31000 M⁻¹ s⁻¹
hCD64-Biotin [4]
  Kd: 0.0638 nM
  koff: 0.000511 s⁻¹
  kon: 8.01e+06 M⁻¹ s⁻¹
hCD16a-Biotin
  binding result: no binding (tested: 50 nM (not printed on the sheet))

B3: Hex-REGN3 (IgG1) Mut1-V2 PVA/P329A (Fc fusion)
chain: SDTGRPFVEMYSEIPEIIHMTEGRELVIPCRVTSPNITVTLKKFPLDTLIPDGKRIIWDSRKGFIISNATYKEIGLLTCEATVNGHLYKTNYLTHRQTNTIIDVVLSPSHGIELSVGEKLVLNCTARTELNVGIDFNWEYPSSKHQHKKLVNRDLKTQSGSEMKKFLSTLTIDGVTRSDQGLYTCAASSGLMTKKNSTFVRVHEKDKTHTCPPCPAPPVAGPSVFLFPPKPKDTLMISRTPEVTCVVVDVSHEDPEVKFNWYVDGVEVHNAKTKPREEQYNSTYRVVSVLTVCHQDWLNGKEYKCKVSNKALAAPIEKTISKAKGQPREPQVYTLPPSREEMTKNQVSLTCLVKGFYPSDIAVEWESNGQPENNYKTTPPVLDSDGSFFLYSKLTVDKSRWQQGNVFSCSVMHEALHNHYTQKSLDKSTGKPTLYNVSLVMSDTAGTCY
notes: Hexameric VEGF antagonist designed as six dimers; also called Hex-REGN3 (IgG1) Mut1 PVA/P329A
hCD64-Biotin [5]
  binding result: no binding (tested: 50 nM (not printed on the sheet))
hCD16a-Biotin
  binding result: no binding (tested: 50 nM (not printed on the sheet))
